Source: patent EP1073891B1, “METHOD OF PREDICTING RECEPTOR MODULATING ACTIVITY” (Duke University, priority 1998, dated 1999)

How the values were obtained:
ERα = biological target: T1, ERα (Homo sapiens, UniProt P03372); assay: Phage ELISA / fingerprint on ER immobilized on biotinylated ERE (Examples 2.3-2.5); assay type: binding; parameters: purchased PanVera Corporation, Madison, WI; key to binding activity, ERα and buffer / binding activity, ERα and estradiol / binding activity, ERα and tamoxifen / binding of peptide, Class Specific Fingerprint on ERα: semiquantitative scale of 0 to 7+; 1+: semiquantitative scale of 0 to 7+; 2+: semiquantitative scale of 0 to 7+; 3+: semiquantitative scale of 0 to 7+; 4+: semiquantitative scale of 0 to 7+; 5+: semiquantitative scale of 0 to 7+; 6+: semiquantitative scale of 0 to 7+; semiquantitative scale of 0 to 7+; details: for binding activity, ERα and estradiol: ERα and estradiol (1 µM); for binding activity, ERα and tamoxifen: ERα and tamoxifen (4-OH tamoxifen, 1 µM)
T1 sequence (P03372 1-595): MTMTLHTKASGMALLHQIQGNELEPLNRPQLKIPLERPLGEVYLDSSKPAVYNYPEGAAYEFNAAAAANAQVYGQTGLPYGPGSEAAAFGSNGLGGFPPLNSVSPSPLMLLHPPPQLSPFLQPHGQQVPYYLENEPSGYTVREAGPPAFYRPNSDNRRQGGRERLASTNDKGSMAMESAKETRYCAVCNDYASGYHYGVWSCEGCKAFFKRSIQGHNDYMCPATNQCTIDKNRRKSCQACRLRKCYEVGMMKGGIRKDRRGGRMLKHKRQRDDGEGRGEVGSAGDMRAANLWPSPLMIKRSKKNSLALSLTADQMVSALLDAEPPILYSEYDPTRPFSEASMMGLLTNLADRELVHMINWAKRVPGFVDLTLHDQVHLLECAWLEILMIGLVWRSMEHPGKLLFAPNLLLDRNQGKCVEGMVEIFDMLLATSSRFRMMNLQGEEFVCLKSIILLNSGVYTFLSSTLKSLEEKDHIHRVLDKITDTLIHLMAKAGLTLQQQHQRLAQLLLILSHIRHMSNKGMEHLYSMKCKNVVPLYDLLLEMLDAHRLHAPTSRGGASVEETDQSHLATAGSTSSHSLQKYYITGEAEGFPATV

ERβ = ERβ (Homo sapiens, UniProt Q92731); assay: as above; assay type: binding; parameters: purchased PanVera Corporation, Madison, WI; key: semiquantitative scale of 0 to 7+; 1+: semiquantitative scale of 0 to 7+; 2+: semiquantitative scale of 0 to 7+; 3+: semiquantitative scale of 0 to 7+; 4+: semiquantitative scale of 0 to 7+; 5+: semiquantitative scale of 0 to 7+; 6+: semiquantitative scale of 0 to 7+; semiquantitative scale of 0 to 7+; details: for binding activity, ERβ and Estradiol: ERβ and Estradiol (1 µM); for binding activity, ERβ and tamoxifen: ERβ and tamoxifen (4-OH tamoxifen, 1 µM)
[1] = 4-OH Tamoxifen present during binding
[2] = 16a-OH Estrone present during binding
[3] = Clomiphene present during binding
[4] = Estradiol present during binding
[5] = ICI 182,780 present during binding
[6] = Nafoxidine present during binding
[7] = Premarin present during binding
[8] = Progesterone present during binding
[9] = Raloxifene present during binding

Sequence of ERβ (Q92731 whole entry): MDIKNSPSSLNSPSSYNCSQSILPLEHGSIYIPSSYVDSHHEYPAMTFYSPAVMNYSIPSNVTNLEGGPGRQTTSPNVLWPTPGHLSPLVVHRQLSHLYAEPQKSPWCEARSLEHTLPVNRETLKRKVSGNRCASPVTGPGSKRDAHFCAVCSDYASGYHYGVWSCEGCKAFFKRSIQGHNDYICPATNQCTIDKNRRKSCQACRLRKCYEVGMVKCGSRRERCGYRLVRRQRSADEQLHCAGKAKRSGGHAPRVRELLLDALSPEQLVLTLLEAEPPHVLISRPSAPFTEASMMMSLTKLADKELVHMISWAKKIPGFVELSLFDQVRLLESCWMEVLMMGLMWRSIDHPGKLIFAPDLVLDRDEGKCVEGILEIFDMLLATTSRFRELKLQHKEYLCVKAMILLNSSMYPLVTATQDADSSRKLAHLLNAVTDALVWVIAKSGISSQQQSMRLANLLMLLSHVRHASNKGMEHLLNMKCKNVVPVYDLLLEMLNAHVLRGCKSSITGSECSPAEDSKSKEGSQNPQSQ

Substance: SRLPPSVFSMCGSEVCLSR [Peptide 9t-β]
- binding activity, ERα and buffer (ERα): 3+
- binding activity, ERα and estradiol (ERα): 3+
- binding activity, ERα and tamoxifen (ERα): 6+
- binding activity, ERβ and Estradiol (ERβ): 2+
- binding activity, ERβ and buffer (ERβ): 3+
- binding activity, ERβ and tamoxifen (ERβ): 7+

Substance: SRWWLDDHELLLYSSR [Peptide 26E-β]
- binding activity, ERα and buffer (ERα): 6+
- binding activity, ERα and estradiol (ERα): 4+
- binding activity, ERα and tamoxifen (ERα): 5+
- binding activity, ERβ and Estradiol (ERβ): 7+
- binding activity, ERβ and buffer (ERβ): 5+
- binding activity, ERβ and tamoxifen (ERβ): 2+

Substance: SSLDLSQFPMTASFLRESR [Peptide 35E-β]
- binding activity, ERα and buffer (ERα): 2+
- binding activity, ERα and estradiol (ERα): 2+
- binding activity, ERα and tamoxifen (ERα): 2+
- binding activity, ERβ and Estradiol (ERβ): 6+
- binding activity, ERβ and buffer (ERβ): 2+
- binding activity, ERβ and tamoxifen (ERβ): 1+

Substance: S A A P R T I S H Y L M G G (SAAPRTISHYLMGG) [#48 ER]
- binding of peptide, Class Specific Fingerprint on ERα (ERα; [1]): 1+
- binding of peptide, Class Specific Fingerprint on ERα (ERα; [2]): 2+
- binding of peptide, Class Specific Fingerprint on ERα (ERα; [3]): 1+
- binding of peptide, Class Specific Fingerprint on ERα (ERα; DES present during binding): 2+
- binding of peptide, Class Specific Fingerprint on ERα (ERα; [4]): 2+
- binding of peptide, Class Specific Fingerprint on ERα (ERα; Estriol present during binding): 4+
- binding of peptide, Class Specific Fingerprint on ERα (ERα; [5]): 1+
- binding of peptide, Class Specific Fingerprint on ERα (ERα; [6]): 1+
- binding of peptide, Class Specific Fingerprint on ERα (ERα; [7]): 2+
- binding of peptide, Class Specific Fingerprint on ERα (ERα; [8]): 6+
- binding of peptide, Class Specific Fingerprint on ERα (ERα; [9]): 1+
- binding of peptide, Class Specific Fingerprint on ERα (ERα; buffer present during binding): 7+
- binding of peptide, Class Specific Fingerprint on ERβ (ERβ; [1]): 1+
- binding of peptide, Class Specific Fingerprint on ERβ (ERβ; [2]): 3+
- binding of peptide, Class Specific Fingerprint on ERβ (ERβ; [3]): 1+
- binding of peptide, Class Specific Fingerprint on ERβ (ERβ; DES present during binding): 3+
- binding of peptide, Class Specific Fingerprint on ERβ (ERβ; [4]): 2+
- binding of peptide, Class Specific Fingerprint on ERβ (ERβ; Estriol present during binding): 6+
- binding of peptide, Class Specific Fingerprint on ERβ (ERβ; [5]): 2+
- binding of peptide, Class Specific Fingerprint on ERβ (ERβ; [6]): 4+
- binding of peptide, Class Specific Fingerprint on ERβ (ERβ; [7]): 4+
- binding of peptide, Class Specific Fingerprint on ERβ (ERβ; [8]): 6+
- binding of peptide, Class Specific Fingerprint on ERβ (ERβ; [9]): 4+
- binding of peptide, Class Specific Fingerprint on ERβ (ERβ; buffer present during binding): 7+

Substance: SWDMHQFFWEGVSR [Peptide 2PT]
- binding of peptide, Class Specific Fingerprint on ERα (ERα; [1]): 7+
- binding of peptide, Class Specific Fingerprint on ERα (ERα; [2]): 2+
- binding of peptide, Class Specific Fingerprint on ERα (ERα; [3]): 6+
- binding of peptide, Class Specific Fingerprint on ERα (ERα; DES present during binding): 1+
- binding of peptide, Class Specific Fingerprint on ERα (ERα; [4]): 1+
- binding of peptide, Class Specific Fingerprint on ERα (ERα; Estriol present during binding): 1+
- binding of peptide, Class Specific Fingerprint on ERα (ERα; [5]): 1+
- binding of peptide, Class Specific Fingerprint on ERα (ERα; [6]): 4+
- binding of peptide, Class Specific Fingerprint on ERα (ERα; [7]): 2+
- binding of peptide, Class Specific Fingerprint on ERα (ERα; [8]): 2+
- binding of peptide, Class Specific Fingerprint on ERα (ERα; [9]): 4+
- binding of peptide, Class Specific Fingerprint on ERα (ERα; buffer present during binding): 1+
- binding of peptide, Class Specific Fingerprint on ERβ (ERβ; [1]): 7+
- binding of peptide, Class Specific Fingerprint on ERβ (ERβ; [2]): 1+
- binding of peptide, Class Specific Fingerprint on ERβ (ERβ; [3]): 5+
- binding of peptide, Class Specific Fingerprint on ERβ (ERβ; DES present during binding): 1+
- binding of peptide, Class Specific Fingerprint on ERβ (ERβ; [4]): 1+
- binding of peptide, Class Specific Fingerprint on ERβ (ERβ; Estriol present during binding): 1+
- binding of peptide, Class Specific Fingerprint on ERβ (ERβ; [5]): 1+
- binding of peptide, Class Specific Fingerprint on ERβ (ERβ; [6]): 3+
- binding of peptide, Class Specific Fingerprint on ERβ (ERβ; [7]): 1+
- binding of peptide, Class Specific Fingerprint on ERβ (ERβ; [8]): 1+
- binding of peptide, Class Specific Fingerprint on ERβ (ERβ; [9]): 6+
- binding of peptide, Class Specific Fingerprint on ERβ (ERβ; buffer present during binding): 2+

Substance: HSWLGPWRLSSIDLGG [Peptide 24b-β]
- binding activity, ERα and buffer (ERα): 2+
- binding activity, ERα and estradiol (ERα): 2+
- binding activity, ERα and tamoxifen (ERα): 3+
- binding activity, ERβ and Estradiol (ERβ): 7+
- binding activity, ERβ and buffer (ERβ): 7+
- binding activity, ERβ and tamoxifen (ERβ): 7+

Substance: SRMFQVCGDEVCLRSR [Peptide 16t-β]
- binding activity, ERα and buffer (ERα): 7+
- binding activity, ERα and estradiol (ERα): 6+
- binding activity, ERα and tamoxifen (ERα): 7+
- binding activity, ERβ and Estradiol (ERβ): 5+
- binding activity, ERβ and buffer (ERβ): 7+
- binding activity, ERβ and tamoxifen (ERβ): 7+

Substance: SSTTMFDFFYERLSR [Peptide 6t-β]
- binding activity, ERα and buffer (ERα): 4+
- binding activity, ERα and estradiol (ERα): 4+
- binding activity, ERα and tamoxifen (ERα): 6+
- binding activity, ERβ and Estradiol (ERβ): 4+
- binding activity, ERβ and buffer (ERβ): 7+
- binding activity, ERβ and tamoxifen (ERβ): 7+
